Laboratory results taken from US20240101677A1.

What was measured:
CD16A-158V-G129D (human) = assay: BLI (ForteBio), method of Example 3, mutant antigen
[1] = biological target: cynomolgus monkey CD16A protein (cynomolgus monkey) (UniProt Q8SPW2); assay: BLI (ForteBio), antibody on Protein A sensor, antigen 100 nM, 1:1 model
[2] = biological target: human CD16A-158F protein (human) (UniProt P08637); assay: as above
[3] = biological target: human CD16A-158V protein (human) (UniProt P08637); assay: as above
Chain of human CD16A-158V protein (human) (P08637 17-208 F176V limits assumed): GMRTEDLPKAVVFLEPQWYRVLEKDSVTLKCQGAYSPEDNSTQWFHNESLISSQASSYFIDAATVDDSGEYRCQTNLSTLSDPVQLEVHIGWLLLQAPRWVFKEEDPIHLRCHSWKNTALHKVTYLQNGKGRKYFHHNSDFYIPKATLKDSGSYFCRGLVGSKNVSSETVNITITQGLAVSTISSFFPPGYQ

[4] = biological target: CD16A on human primary NK cells (human) (UniProt P08637); assay: flow cytometry (MFI, PE-anti-human Fc) on human primary NK cells, donor SLB190084
Chain of CD16A on human primary NK cells (human) (P08637 17-254): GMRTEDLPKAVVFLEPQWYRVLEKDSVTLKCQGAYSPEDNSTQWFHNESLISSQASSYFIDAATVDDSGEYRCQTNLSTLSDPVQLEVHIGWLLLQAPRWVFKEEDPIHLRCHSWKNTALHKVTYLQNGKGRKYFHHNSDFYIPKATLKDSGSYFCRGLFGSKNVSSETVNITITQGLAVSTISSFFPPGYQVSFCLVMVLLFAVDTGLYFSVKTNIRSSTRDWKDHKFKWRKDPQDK

[5] = biological target: CD16A on human primary NK cells (human) (UniProt P08637); assay: flow cytometry (MFI, PE-anti-human Fc) on human primary NK cells, donor SLB190071
[6] = biological target: human CD16A (type 158V) on GS-CHO cells (human) (UniProt P08637); assay: flow cytometry (MFI, PE-anti-human Fc) on GS-CHO cells expressing human CD16A (type 158V)
Chain of human CD16A (type 158V) on GS-CHO cells (human) (P08637 17-254 F176V): as the sequence (P08637 17-254) above, with F160V counted along it

Chain of human CD16A-158F protein (human) (P08637 17-208 limits assumed): as the sequence (P08637 17-208 F176V limits assumed) above, with V160F counted along it
Chain of cynomolgus monkey CD16A protein (cynomolgus monkey) (Q8SPW2 17-208 limits assumed): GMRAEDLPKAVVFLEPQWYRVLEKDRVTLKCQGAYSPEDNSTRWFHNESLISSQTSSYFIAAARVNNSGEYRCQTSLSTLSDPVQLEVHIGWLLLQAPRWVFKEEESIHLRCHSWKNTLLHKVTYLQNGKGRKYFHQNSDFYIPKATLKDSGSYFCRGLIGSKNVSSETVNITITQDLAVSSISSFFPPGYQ
Chain of CD16A-158V-G129D (human) (chain, as listed by the source G129D G129D limits assumed): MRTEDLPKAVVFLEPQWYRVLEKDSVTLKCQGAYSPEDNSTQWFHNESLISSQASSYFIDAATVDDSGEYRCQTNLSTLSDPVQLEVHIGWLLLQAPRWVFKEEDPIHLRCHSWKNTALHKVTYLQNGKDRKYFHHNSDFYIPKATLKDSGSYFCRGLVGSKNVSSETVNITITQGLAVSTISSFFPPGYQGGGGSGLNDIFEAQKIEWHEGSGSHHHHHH

B1: 4LS21 antibody (CD16A humanized antibody 4LS21 from Affimed Therapeutics AG, in the form of ScFv-Fc) (Fc fusion, not shown: a dimerising Fc or GST; small tags and cut ends)
VH: QVQLVQSGAEVKKPGESLKVSCKASGYTFTSYYMHWVRQAPGQGLEWMGAIEPMYGSTSYAQKFQGRVTMTRDTSTSTVYMELSSLRSEDTAVYYCARGSAYYYDFADYWGQGTLVTVSS
VL: SYVLTQPSSVSVAPGQTATISCGGHNIGSKNVHWYQQRPGQSPVLVIYQDNKRPSGIPERFSGSNSGNTATLTISGTQAMDEADYYCQVWDNYSVLFGGGTKLTVL
A Kd (CD16A-158V-G129D (human)) of 4.63 nM, a Kd [1] of 7.94 nM and a Kd [2] of 4.75 nM were found for B1 in this work. It also gave a Kd [3] of 7.75 nM, an EC50 [4] of 15.6 nM and an EC50 [5] of 2.64 nM. For the same binder, the EC50 [6] was 11.8 nM.
